Data published in patent US20140322269A1.

Assays:
[1] = molecular target: c1d1_N386D displayed on yeast (Saccharomyces cerevisiae); experiment: yeast surface display; Fab titration, flow cytometry
[2] = molecular target: c1d1_v2 displayed on yeast (Saccharomyces cerevisiae); experiment: as above
eOD_N276D = experiment: method not given
eOD_L260F = experiment: method not given
eOD_L260F_N276D = experiment: method not given
eOD_N276D_N463D [3] = experiment: method not given
c1d1_N386D [4] = experiment: SPR
[5] = molecular target: wild-type core GP120 (soluble, mammalian-expressed) (HIV, HxB2 strain) (UniProt P04578); experiment: method not restated; rounded form of 3.9 nM of Table 1
[6] = molecular target: ODml(N386) (Human immunodeficiency virus type 1 group M subtype B (isolate HXB2) (HIV-1)) (UniProt P04578); experiment: SPR; IgG captured, OD variant as analyte
c2d1_b10disulf = experiment: SPR; IgG captured, OD variant as analyte
c1d1_N386D [7] = experiment: SPR and ITC
c1d1_N386D [8] = experiment: ITC
c1d1_b10disulf = experiment: ITC
[9] = molecular target: wild-type core GP120 (soluble, mammalian-expressed) (HIV, HxB2 strain) (UniProt P04578); experiment: SPR; IgG captured by anti-human IgG, gp120 as analyte
c1d1_N386D [10] = experiment: SPR, kinetics fitting
eOD_T257S_L260F_S375W = experiment: method not given
eOD_T257S_S375W = experiment: method not given
eOD_N276D_N463D [11] = experiment: method not given; protein from 293 cells
c1d1_N386D [12] = experiment: method not restated
[13] = molecular target: c1d1_b10disulf displayed on yeast (Saccharomyces cerevisiae); experiment: yeast surface display; Fab titration, flow cytometry

b12 Fab
Kd [1]: 21 nM
Kd [2]: 11 nM

germline VRC01 IgG (antibody)
Kd (eOD_N276D): 640000 nM
Kd (eOD_L260F): > 500000 nM
Kd (eOD_L260F_N276D): 149000 nM
Kd (eOD_N276D_N463D [3]): 380000 nM

b12 IgG (antibody)
fold improvement of KD over OD (386) (c1d1_N386D [4]): 28 fold

VRC01 IgG (mature VRC01) (antibody)
Kd [5]: 4 nM
Kd [6]: 298 nM
Kd (c2d1_b10disulf): 289 nM
fold worse KD than core gp120 (c1d1_N386D [7]): 35 to 50 fold
Kd (c1d1_N386D [8]): 200 nM
Kd (c1d1_b10disulf): 100 nM
fold improvement of KD over c1d1 N386D (c1d1_b10disulf): 2 fold
Kd [9]: 3.9 nM
Kd (c1d1_N386D [10]): 139 nM
Kd (eOD_N276D): 27.8 nM
Kd (eOD_L260F): 14.3 nM
Kd (eOD_L260F_N276D): 11.9 nM
Kd (eOD_T257S_L260F_S375W): 8.6 nM
Kd (eOD_T257S_S375W): 90 nM
Kd (eOD_N276D_N463D [11]): 4 nM
Kd (c1d1_N386D [12]): 80 nM
fold weaker affinity than core gp120 (c1d1_N386D [12]): > 10 fold

VRC01 Fab
Kd [1]: > 50 nM
Kd [13]: > 50 nM
Kd [2]: > 50 nM
